T1: EsCas13d, nuclease-dead (Eubacterium siraeum, UniProt B0MS50, R295A;H300A;R849A;H854A)
T1 sequence: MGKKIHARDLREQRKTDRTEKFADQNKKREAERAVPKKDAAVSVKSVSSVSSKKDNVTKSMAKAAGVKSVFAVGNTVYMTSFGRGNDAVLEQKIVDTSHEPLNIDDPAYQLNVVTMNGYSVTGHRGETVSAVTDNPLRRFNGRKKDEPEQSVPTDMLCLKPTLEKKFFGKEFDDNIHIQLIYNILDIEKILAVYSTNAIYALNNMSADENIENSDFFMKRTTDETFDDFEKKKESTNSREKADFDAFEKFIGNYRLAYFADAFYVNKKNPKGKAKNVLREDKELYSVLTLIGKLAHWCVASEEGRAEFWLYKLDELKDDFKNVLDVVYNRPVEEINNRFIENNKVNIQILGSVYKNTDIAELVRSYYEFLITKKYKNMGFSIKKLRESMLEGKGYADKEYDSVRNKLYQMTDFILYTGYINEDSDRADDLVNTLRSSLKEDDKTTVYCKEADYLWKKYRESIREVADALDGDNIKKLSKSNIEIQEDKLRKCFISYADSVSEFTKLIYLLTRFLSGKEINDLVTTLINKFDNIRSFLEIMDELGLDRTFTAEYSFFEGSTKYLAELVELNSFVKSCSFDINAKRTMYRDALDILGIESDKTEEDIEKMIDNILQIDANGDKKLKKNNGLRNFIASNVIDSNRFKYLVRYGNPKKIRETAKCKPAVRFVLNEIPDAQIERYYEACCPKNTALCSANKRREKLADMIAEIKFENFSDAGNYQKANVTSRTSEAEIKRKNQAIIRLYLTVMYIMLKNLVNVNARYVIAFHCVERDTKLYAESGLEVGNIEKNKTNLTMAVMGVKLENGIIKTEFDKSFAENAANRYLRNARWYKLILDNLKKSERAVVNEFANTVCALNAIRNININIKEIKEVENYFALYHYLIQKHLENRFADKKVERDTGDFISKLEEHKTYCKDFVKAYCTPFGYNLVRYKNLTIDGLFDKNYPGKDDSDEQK

B1: target 2 MT 5'PFS AGA 3'PFS UUC (mixed)
RNA 1: CACCCGUGCAAAAUUGCAGGGGUCUAAAACCUUCUCCAAAUUGUUUCAUCCU
RNA 2: GGGAAUGGAUCCACAUCUACGAAUUCAGAAGGAUGAAACAAUUUGGAGAAGUUCAGAUCGGAAGAGCACACGU
B2: target 2 MT 5'PFS UUA 3'PFS UAC (mixed)
RNA 1: CACCCGUGCAAAAUUGCAGGGGUCUAAAACCUUCUCCAAAUUGUUUCAUCCU
RNA 2: GGGAAUGGAUCCACAUCUACGAAUUCUUAAGGAUGAAACAAUUUGGAGAAGUACAGAUCGGAAGAGCACACGU
B3: target 2 MT 5'PFS AGA 3'PFS UUG (mixed)
RNA 1: CACCCGUGCAAAAUUGCAGGGGUCUAAAACCUUCUCCAAAUUGUUUCAUCCU
RNA 2: GGGAAUGGAUCCACAUCUACGAAUUCAGAAGGAUGAAACAAUUUGGAGAAGUUGAGAUCGGAAGAGCACACGU
B4: target 2 MT 5'PFS GUC 3'PFS UUA (mixed)
RNA 1: CACCCGUGCAAAAUUGCAGGGGUCUAAAACCUUCUCCAAAUUGUUUCAUCCU
RNA 2: GGGAAUGGAUCCACAUCUACGAAUUCGUCAGGAUGAAACAAUUUGGAGAAGUUAAGAUCGGAAGAGCACACGU
B5: target 2 MT 5'PFS AGA 3'PFS UUA (mixed)
RNA 1: CACCCGUGCAAAAUUGCAGGGGUCUAAAACCUUCUCCAAAUUGUUUCAUCCU
RNA 2: GGGAAUGGAUCCACAUCUACGAAUUCAGAAGGAUGAAACAAUUUGGAGAAGUUAAGAUCGGAAGAGCACACGU
B6: target 2 MT 5'PFS UUA 3'PFS UAU (mixed)
RNA 1: CACCCGUGCAAAAUUGCAGGGGUCUAAAACCUUCUCCAAAUUGUUUCAUCCU
RNA 2: GGGAAUGGAUCCACAUCUACGAAUUCUUAAGGAUGAAACAAUUUGGAGAAGUAUAGAUCGGAAGAGCACACGU
B7: target 2 MT 5'PFS UUA 3'PFS CUU (mixed)
RNA 1: CACCCGUGCAAAAUUGCAGGGGUCUAAAACCUUCUCCAAAUUGUUUCAUCCU
RNA 2: GGGAAUGGAUCCACAUCUACGAAUUCUUAAGGAUGAAACAAUUUGGAGAAGCUUAGAUCGGAAGAGCACACGU
B8: target 2 MT 5'PFS AGU 3'PFS CUG (mixed)
RNA 1: CACCCGUGCAAAAUUGCAGGGGUCUAAAACCUUCUCCAAAUUGUUUCAUCCU
RNA 2: GGGAAUGGAUCCACAUCUACGAAUUCAGUAGGAUGAAACAAUUUGGAGAAGCUGAGAUCGGAAGAGCACACGU
B9: target 2 MT 5'PFS GGC 3'PFS UGU (mixed)
RNA 1: CACCCGUGCAAAAUUGCAGGGGUCUAAAACCUUCUCCAAAUUGUUUCAUCCU
RNA 2: GGGAAUGGAUCCACAUCUACGAAUUCGGCAGGAUGAAACAAUUUGGAGAAGUGUAGAUCGGAAGAGCACACGU
B10: target 2 MT 5'PFS UUA 3'PFS CUG (mixed)
RNA 1: CACCCGUGCAAAAUUGCAGGGGUCUAAAACCUUCUCCAAAUUGUUUCAUCCU
RNA 2: GGGAAUGGAUCCACAUCUACGAAUUCUUAAGGAUGAAACAAUUUGGAGAAGCUGAGAUCGGAAGAGCACACGU
B11: target 2 MT 5'PFS AUC 3'PFS CGA (mixed)
RNA 1: CACCCGUGCAAAAUUGCAGGGGUCUAAAACCUUCUCCAAAUUGUUUCAUCCU
RNA 2: GGGAAUGGAUCCACAUCUACGAAUUCAUCAGGAUGAAACAAUUUGGAGAAGCGAAGAUCGGAAGAGCACACGU
B12: target 2 MT 5'PFS UUA 3'PFS CUC (mixed)
RNA 1: CACCCGUGCAAAAUUGCAGGGGUCUAAAACCUUCUCCAAAUUGUUUCAUCCU
RNA 2: GGGAAUGGAUCCACAUCUACGAAUUCUUAAGGAUGAAACAAUUUGGAGAAGCUCAGAUCGGAAGAGCACACGU
B13: target 2 MT 5'PFS AUU 3'PFS UUC (mixed)
RNA 1: CACCCGUGCAAAAUUGCAGGGGUCUAAAACCUUCUCCAAAUUGUUUCAUCCU
RNA 2: GGGAAUGGAUCCACAUCUACGAAUUCAUUAGGAUGAAACAAUUUGGAGAAGUUCAGAUCGGAAGAGCACACGU
B14: target 2 MT 5'PFS GCU 3'PFS UCG (mixed)
RNA 1: CACCCGUGCAAAAUUGCAGGGGUCUAAAACCUUCUCCAAAUUGUUUCAUCCU
RNA 2: GGGAAUGGAUCCACAUCUACGAAUUCGCUAGGAUGAAACAAUUUGGAGAAGUCGAGAUCGGAAGAGCACACGU
B15: target 2 MT 5'PFS CCA 3'PFS CCU (mixed)
RNA 1: CACCCGUGCAAAAUUGCAGGGGUCUAAAACCUUCUCCAAAUUGUUUCAUCCU
RNA 2: GGGAAUGGAUCCACAUCUACGAAUUCCCAAGGAUGAAACAAUUUGGAGAAGCCUAGAUCGGAAGAGCACACGU
B16: target 2 MT 5'PFS UUA 3'PFS UAG (mixed)
RNA 1: CACCCGUGCAAAAUUGCAGGGGUCUAAAACCUUCUCCAAAUUGUUUCAUCCU
RNA 2: GGGAAUGGAUCCACAUCUACGAAUUCUUAAGGAUGAAACAAUUUGGAGAAGUAGAGAUCGGAAGAGCACACGU
B17: target 2 MT 5'PFS GCU 3'PFS UCU (mixed)
RNA 1: CACCCGUGCAAAAUUGCAGGGGUCUAAAACCUUCUCCAAAUUGUUUCAUCCU
RNA 2: GGGAAUGGAUCCACAUCUACGAAUUCGCUAGGAUGAAACAAUUUGGAGAAGUCUAGAUCGGAAGAGCACACGU
B18: target 2 MT 5'PFS UUA 3'PFS CUA (mixed)
RNA 1: CACCCGUGCAAAAUUGCAGGGGUCUAAAACCUUCUCCAAAUUGUUUCAUCCU
RNA 2: GGGAAUGGAUCCACAUCUACGAAUUCUUAAGGAUGAAACAAUUUGGAGAAGCUAAGAUCGGAAGAGCACACGU
B19: target 2 MT 5'PFS AGU 3'PFS CUC (mixed)
RNA 1: CACCCGUGCAAAAUUGCAGGGGUCUAAAACCUUCUCCAAAUUGUUUCAUCCU
RNA 2: GGGAAUGGAUCCACAUCUACGAAUUCAGUAGGAUGAAACAAUUUGGAGAAGCUCAGAUCGGAAGAGCACACGU
B20: target 2 MT 5'PFS GCU 3'PFS UCC (mixed)
RNA 1: CACCCGUGCAAAAUUGCAGGGGUCUAAAACCUUCUCCAAAUUGUUUCAUCCU
RNA 2: GGGAAUGGAUCCACAUCUACGAAUUCGCUAGGAUGAAACAAUUUGGAGAAGUCCAGAUCGGAAGAGCACACGU
B21: target 2 MT 5'PFS AUU 3'PFS UUA (mixed)
RNA 1: CACCCGUGCAAAAUUGCAGGGGUCUAAAACCUUCUCCAAAUUGUUUCAUCCU
RNA 2: GGGAAUGGAUCCACAUCUACGAAUUCAUUAGGAUGAAACAAUUUGGAGAAGUUAAGAUCGGAAGAGCACACGU
B22: target 2 MT 5'PFS AAG 3'PFS AAC (mixed)
RNA 1: CACCCGUGCAAAAUUGCAGGGGUCUAAAACCUUCUCCAAAUUGUUUCAUCCU
RNA 2: GGGAAUGGAUCCACAUCUACGAAUUCAAGAGGAUGAAACAAUUUGGAGAAGAACAGAUCGGAAGAGCACACGU
B23: target 2 MT 5'PFS GUC 3'PFS UUU (mixed)
RNA 1: CACCCGUGCAAAAUUGCAGGGGUCUAAAACCUUCUCCAAAUUGUUUCAUCCU
RNA 2: GGGAAUGGAUCCACAUCUACGAAUUCGUCAGGAUGAAACAAUUUGGAGAAGUUUAGAUCGGAAGAGCACACGU
B24: target 2 MT 5'PFS GUC 3'PFS UUC (mixed)
RNA 1: CACCCGUGCAAAAUUGCAGGGGUCUAAAACCUUCUCCAAAUUGUUUCAUCCU
RNA 2: GGGAAUGGAUCCACAUCUACGAAUUCGUCAGGAUGAAACAAUUUGGAGAAGUUCAGAUCGGAAGAGCACACGU
B25: target 2 MT 5'PFS AGU 3'PFS CUU (mixed)
RNA 1: CACCCGUGCAAAAUUGCAGGGGUCUAAAACCUUCUCCAAAUUGUUUCAUCCU
RNA 2: GGGAAUGGAUCCACAUCUACGAAUUCAGUAGGAUGAAACAAUUUGGAGAAGCUUAGAUCGGAAGAGCACACGU
B26: target 2 MT 5'PFS AGA 3'PFS UUU (mixed)
RNA 1: CACCCGUGCAAAAUUGCAGGGGUCUAAAACCUUCUCCAAAUUGUUUCAUCCU
RNA 2: GGGAAUGGAUCCACAUCUACGAAUUCAGAAGGAUGAAACAAUUUGGAGAAGUUUAGAUCGGAAGAGCACACGU
B27: target 1 U10A,G12C (mixed)
RNA 1: CACCCGUGCAAAAAUGCAGGGGUCUAAAACUGAGCGGAUAACCUCUCUAUGG
RNA 2: GGGAAUGGAUCCACAUCUACGAAUUCGUACCAUAGAGAGCUAAUCCGCUCACCGAGAUCGGAAGAGCACACGU
B28: target 1 insG 3' of 2,insG 3' of 2 (mixed)
RNA 1: CACCCGUGCAAAAAUGCAGGGGUCUAAAACUGAGCGGAUAACCUCUCUAUGG
RNA 2: GGGAAUGGAUCCACAUCUACGAAUUCGUACCAUAGAGAGGUUAUCCGCUCGGACCGAGAUCGGAAGAGCACACGU

target: T1, EsCas13d, nuclease-dead; test: crRNA (strand 1, pre-loaded); Mg2+; 40 mM Tris-HCl pH 7.5, 150 mM NaCl, 6 mM MgCl2, 1 mM DTT, 0.1% Tween-20, 0.2 mg/ml BSA; 25 C; 10 min per concentration, then washed; details: tags: His6-TwinStrep-SUMO cleaved; N-terminal SNAP kept (SNAP-Surface 488); label: 3' end held by stalled T7 RNA polymerase

Compared with B1, B2 is 2.1-fold higher in Kd: 18 ± 5 nM for the first, 37 ± 7 nM for the second.

Compared with B3, B4 is 5.1-fold higher in Kd: 6.1 ± 1 nM for the first, 31 ± 6 nM for the second.

B5 and B6 are within error of each other in Kd: 11.7 ± 2.2 nM for the first, 15.9 ± 2.4 nM for the second.

First: B7
Second: B8
The Kd of the first is 3.2-fold higher: 36 ± 6 nM for the first, 11.4 ± 1.5 nM for the second.

B9 and B10 are within error of each other in Kd: 27.8 ± 3.5 nM for the first, 24 ± 2.7 nM for the second.

B11 and B12 are within error of each other in Kd: 61 ± 20 nM for the first, 55 ± 16 nM for the second.

B13 and B14 are within error of each other in Kd: 23 ± 5 nM for the first, 18 ± 4 nM for the second.

Going from B15 to B16, the Kd rises from 4.9 ± 0.6 nM to 22 ± 5 nM (4.5-fold). The first binds more tightly here.

B17 and B18 are within error of each other in Kd: 34 ± 11 nM for the first, 20.9 ± 3.3 nM for the second.

B19 and B20 are within 1.5-fold of each other in Kd: ~50 nM for the first, 40 ± 8 nM for the second.

First: B21
Second: B22
The Kd of the first is 4.4-fold higher: 13.5 ± 2.1 nM for the first, 3.1 ± 1 nM for the second.

B23 and B24 are within error of each other in Kd: 58 ± 15 nM for the first, ~47 nM for the second.

First: B25
Second: B26
The Kd of the first is 1.8-fold higher: 24 ± 8 nM for the first, 13.2 ± 2.6 nM for the second.

B27 and B28 are within error of each other in Kd: 8.6 ± 1 nM for the first, 7.5 ± 0.5 nM for the second.

Reference: PMC10786891, “Massively parallel profiling of RNA-targeting CRISPR-Cas13d”
